Measurements published in the supplement of paper PMC9112550, “Optimization of the antimicrobial peptide Bac7 by deep mutational scanning” (BMC Biology, 2022).

Test system: Escherichia coli TOP10
Test: shrunken log2 fold change of peptide-encoding DNA abundance (4.5 h post-induction vs induction); higher = less antimicrobial activity (less host growth inhibition)
Settings: time post-induction: 4.5 h; library: site-saturation at positions 5, 18, 19, 20
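Further: peptides expressed intracellularly from a pBAD plasmid library in pooled LB shake-flask culture, induced with 0.3% L-arabinose, DNA abundance read by NGS, three biological replicates, DESeq2 with apeglm shrinkage.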

Row | Sequence | shrunken log2 fold change
1 | RRIRERPPRLPRPRPRPLSTPRP | -0.48
2 | RRIRERPPRLPRPRPRPLSWPRP | 0.04
3 | RRIRERPPRLPRPRPRPLTHPRP | -0.413
4 | RRIRERPPRLPRPRPRPLWQPRP | 0.113
5 | RRIRERPPRLPRPRPRPMCDPRP | -0.212
6 | RRIRERPPRLPRPRPRPMCRPRP | 0.03
7 | RRIRERPPRLPRPRPRPMEHPRP | 0.0106
8 | RRIRERPPRLPRPRPRPMEKPRP | -0.0775
9 | RRIRERPPRLPRPRPRPMFIPRP | -0.256
10 | RRIRERPPRLPRPRPRPMFKPRP | -0.204
11 | RRIRERPPRLPRPRPRPMGRPRP | 0.0998
12 | RRIRERPPRLPRPRPRPMKGPRP | -0.0658
13 | RRIRERPPRLPRPRPRPMLDPRP | 0.0349
14 | RRIRERPPRLPRPRPRPMLFPRP | -0.0835
15 | RRIRERPPRLPRPRPRPMLMPRP | -0.142
16 | RRIRERPPRLPRPRPRPMPNPRP | -0.172
17 | RRIRERPPRLPRPRPRPMQIPRP | -0.0552
18 | RRIRERPPRLPRPRPRPMRMPRP | -0.0542
19 | RRIRERPPRLPRPRPRPMSHPRP | -0.741
20 | RRIRERPPRLPRPRPRPMSKPRP | -0.439
21 | RRIRERPPRLPRPRPRPMTWPRP | 0.0575
22 | RRIRERPPRLPRPRPRPMVFPRP | 0.0276
23 | RRIRERPPRLPRPRPRPMWHPRP | 0.0749
24 | RRIRERPPRLPRPRPRPMWNPRP | -0.0278
25 | RRIRERPPRLPRPRPRPMWWPRP | -0.298

Row | Sequence | shrunken log2 fold change
26 | RRIRERPPRLPRPRPRPMYNPRP | -0.301
27 | RRIRERPPRLPRPRPRPNADPRP | -0.0389
28 | RRIRERPPRLPRPRPRPNETPRP | -0.0321
29 | RRIRERPPRLPRPRPRPNFEPRP | -0.188
30 | RRIRERPPRLPRPRPRPNGNPRP | -0.104
31 | RRIRERPPRLPRPRPRPNHTPRP | -0.58
32 | RRIRERPPRLPRPRPRPNIPPRP | -0.396
33 | RRIRERPPRLPRPRPRPNKRPRP | -0.164
34 | RRIRERPPRLPRPRPRPNLAPRP | -0.194
35 | RRIRERPPRLPRPRPRPNLFPRP | 0.0891
36 | RRIRERPPRLPRPRPRPNLYPRP | -0.022
37 | RRIRERPPRLPRPRPRPNQNPRP | -0.188
38 | RRIRERPPRLPRPRPRPNSDPRP | -0.142
39 | RRIRERPPRLPRPRPRPNSSPRP | -0.494
40 | RRIRERPPRLPRPRPRPNTPPRP | 0.0861
41 | RRIRERPPRLPRPRPRPNVMPRP | -0.403
42 | RRIRERPPRLPRPRPRPNWEPRP | 0.0232
43 | RRIRERPPRLPRPRPRPNWRPRP | 0.194
44 | RRIRERPPRLPRPRPRPNWVPRP | -0.0244
45 | RRIRERPPRLPRPRPRPPANPRP | 0.0983
46 | RRIRERPPRLPRPRPRPPCFPRP | -0.0819
47 | RRIRERPPRLPRPRPRPPCTPRP | 0.0136
48 | RRIRERPPRLPRPRPRPPDDPRP | 0.103
49 | RRIRERPPRLPRPRPRPPDGPRP | 0.0068
50 | RRIRERPPRLPRPRPRPPDKPRP | 0.0845

Row | Sequence | shrunken log2 fold change
51 | RRIRERPPRLPRPRPRPPDLPRP | 0.16
52 | RRIRERPPRLPRPRPRPPFKPRP | -0.0871
53 | RRIRERPPRLPRPRPRPPGMPRP | 0.0408
54 | RRIRERPPRLPRPRPRPPGWPRP | 0.467
55 | RRIRERPPRLPRPRPRPPIEPRP | -0.227
56 | RRIRERPPRLPRPRPRPPKSPRP | 0.21
57 | RRIRERPPRLPRPRPRPPMFPRP | -0.203
58 | RRIRERPPRLPRPRPRPPMLPRP | 1.29
59 | RRIRERPPRLPRPRPRPPMYPRP | -0.458
60 | RRIRERPPRLPRPRPRPPNEPRP | 0.28
61 | RRIRERPPRLPRPRPRPPPMPRP | 0.271
62 | RRIRERPPRLPRPRPRPPQAPRP | 0.154
63 | RRIRERPPRLPRPRPRPPQNPRP | 0.232
64 | RRIRERPPRLPRPRPRPPQPPRP | 0.307
65 | RRIRERPPRLPRPRPRPPRQPRP | 0.26
66 | RRIRERPPRLPRPRPRPPRVPRP | 0.342
67 | RRIRERPPRLPRPRPRPPTHPRP | 0.0517
68 | RRIRERPPRLPRPRPRPPVRPRP | 0.538
69 | RRIRERPPRLPRPRPRPPYRPRP | 0.0947
70 | RRIRERPPRLPRPRPRPQAMPRP | 0.00616
71 | RRIRERPPRLPRPRPRPQCAPRP | 0.0306
72 | RRIRERPPRLPRPRPRPQCKPRP | -0.276
73 | RRIRERPPRLPRPRPRPQDHPRP | -0.0577
74 | RRIRERPPRLPRPRPRPQEMPRP | -0.391
75 | RRIRERPPRLPRPRPRPQEPPRP | -0.0182

Row | Sequence | shrunken log2 fold change
76 | RRIRERPPRLPRPRPRPQETPRP | 0.0209
77 | RRIRERPPRLPRPRPRPQGCPRP | -0.0179
78 | RRIRERPPRLPRPRPRPQGHPRP | -0.0972
79 | RRIRERPPRLPRPRPRPQGMPRP | -0.284
80 | RRIRERPPRLPRPRPRPQGQPRP | -0.0238
81 | RRIRERPPRLPRPRPRPQGSPRP | -0.107
82 | RRIRERPPRLPRPRPRPQGVPRP | 0.0697
83 | RRIRERPPRLPRPRPRPQHPPRP | -0.367
84 | RRIRERPPRLPRPRPRPQIGPRP | -0.0217
85 | RRIRERPPRLPRPRPRPQIMPRP | -0.398
86 | RRIRERPPRLPRPRPRPQIQPRP | 0.136
87 | RRIRERPPRLPRPRPRPQKAPRP | -0.0836
88 | RRIRERPPRLPRPRPRPQLHPRP | -0.216
89 | RRIRERPPRLPRPRPRPQLKPRP | -0.358
90 | RRIRERPPRLPRPRPRPQNKPRP | -0.64
91 | RRIRERPPRLPRPRPRPQNLPRP | -0.375
92 | RRIRERPPRLPRPRPRPQPVPRP | -0.13
93 | RRIRERPPRLPRPRPRPQQNPRP | -0.122
94 | RRIRERPPRLPRPRPRPQSDPRP | -0.134
95 | RRIRERPPRLPRPRPRPQTKPRP | 0.0765
96 | RRIRERPPRLPRPRPRPQTMPRP | -0.157
97 | RRIRERPPRLPRPRPRPQTVPRP | 0.136
98 | RRIRERPPRLPRPRPRPQYNPRP | -0.927
99 | RRIRERPPRLPRPRPRPQYYPRP | -0.676
100 | RRIRERPPRLPRPRPRPRATPRP | 0.278

Row | Sequence | shrunken log2 fold change
101 | RRIRERPPRLPRPRPRPRCGPRP | 0.146
102 | RRIRERPPRLPRPRPRPRDIPRP | -0.0401
103 | RRIRERPPRLPRPRPRPRDYPRP | -0.521
104 | RRIRERPPRLPRPRPRPREQPRP | -0.0138
105 | RRIRERPPRLPRPRPRPRFEPRP | 0.168
106 | RRIRERPPRLPRPRPRPRHLPRP | -0.427
107 | RRIRERPPRLPRPRPRPRKTPRP | 0.318
108 | RRIRERPPRLPRPRPRPRKYPRP | -0.201
109 | RRIRERPPRLPRPRPRPRMYPRP | -0.723
110 | RRIRERPPRLPRPRPRPRQGPRP | 0.235
111 | RRIRERPPRLPRPRPRPRQYPRP | -0.369
112 | RRIRERPPRLPRPRPRPRSPPRP | 0.0194
113 | RRIRERPPRLPRPRPRPRSVPRP | -0.219
114 | RRIRERPPRLPRPRPRPRTIPRP | -0.337
115 | RRIRERPPRLPRPRPRPRTRPRP | 0.12
116 | RRIRERPPRLPRPRPRPRVHPRP | 0.0407
117 | RRIRERPPRLPRPRPRPRVRPRP | 0.211
118 | RRIRERPPRLPRPRPRPRYSPRP | -0.182
119 | RRIRERPPRLPRPRPRPSCEPRP | -0.668
120 | RRIRERPPRLPRPRPRPSCGPRP | 0.0151
121 | RRIRERPPRLPRPRPRPSCNPRP | -0.0433
122 | RRIRERPPRLPRPRPRPSCVPRP | -0.356
123 | RRIRERPPRLPRPRPRPSEDPRP | -0.0724
124 | RRIRERPPRLPRPRPRPSFMPRP | -0.546
125 | RRIRERPPRLPRPRPRPSGRPRP | 0.226

Row | Sequence | shrunken log2 fold change
126 | RRIRERPPRLPRPRPRPSIRPRP | -0.242
127 | RRIRERPPRLPRPRPRPSLAPRP | -0.0635
128 | RRIRERPPRLPRPRPRPSMQPRP | -0.759
129 | RRIRERPPRLPRPRPRPSMSPRP | -0.0748
130 | RRIRERPPRLPRPRPRPSNNPRP | -0.973
131 | RRIRERPPRLPRPRPRPSPFPRP | -0.972
132 | RRIRERPPRLPRPRPRPSPGPRP | -0.00119
133 | RRIRERPPRLPRPRPRPSPMPRP | -0.0654
134 | RRIRERPPRLPRPRPRPSPYPRP | -0.277
135 | RRIRERPPRLPRPRPRPSQNPRP | -0.267
136 | RRIRERPPRLPRPRPRPSQWPRP | -0.176
137 | RRIRERPPRLPRPRPRPSSMPRP | -0.284
138 | RRIRERPPRLPRPRPRPSVRPRP | -0.148
139 | RRIRERPPRLPRPRPRPSVTPRP | -0.4
140 | RRIRERPPRLPRPRPRPTAIPRP | 0.32
141 | RRIRERPPRLPRPRPRPTCEPRP | -0.122
142 | RRIRERPPRLPRPRPRPTDGPRP | 0.158
143 | RRIRERPPRLPRPRPRPTEIPRP | 0.135
144 | RRIRERPPRLPRPRPRPTENPRP | -0.0185
145 | RRIRERPPRLPRPRPRPTETPRP | -0.00327
146 | RRIRERPPRLPRPRPRPTGDPRP | 0.321
147 | RRIRERPPRLPRPRPRPTHSPRP | -0.335
148 | RRIRERPPRLPRPRPRPTHWPRP | 1.02
149 | RRIRERPPRLPRPRPRPTIRPRP | -0.622
150 | RRIRERPPRLPRPRPRPTMNPRP | -0.19
